The results in this text go back to patent US9696303.

A value given as a limit tells only on which side of the number the result lay.

Experiment [1] addresses HRP-labelled Concavalin A (UniProt P02866). The experiment in a line: capillary displacement of HRP-labelled Concavalin A from immobilised yeast mannoprotein; platform of Example 2; HRP substrate, spectrophotometer.
Experiment [2] has the same target. The experiment in a line: capillary displacement of HRP-labelled Concavalin A from immobilised yeast mannoprotein; platform of Example 3; HRP substrate, spectrophotometer.
Experiment [3] has the same target. Nature of the experiment: capillary displacement of HRP-labelled Concavalin A from immobilised yeast mannoprotein; platform of Example 4; HRP substrate, spectrophotometer.

Chain of UniProt P02866 (P02866 30-281 limits assumed): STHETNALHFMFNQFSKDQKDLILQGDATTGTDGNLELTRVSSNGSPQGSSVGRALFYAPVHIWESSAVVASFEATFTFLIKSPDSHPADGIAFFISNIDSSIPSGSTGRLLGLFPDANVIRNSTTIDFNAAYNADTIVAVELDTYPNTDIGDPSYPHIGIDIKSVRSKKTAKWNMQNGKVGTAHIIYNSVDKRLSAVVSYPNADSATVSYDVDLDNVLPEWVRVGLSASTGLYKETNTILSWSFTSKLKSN

In the case of “polystyrene beads with immobilised yeast mannoprotein”, the absorbance at 446-456 nm (absorbance (456 nm)) in experiment [1] was 3. Further, the results for the absorbance at 446-456 nm (absorbance (446 nm)) in experiment [2] and in experiment [3] were 2.22 and over 4, respectively.

The substance yeast mannoprotein registered an absorbance at 446-456 nm (absorbance (448.5 nm)) in experiment [2] of 2.7. This substance returned an absorbance at 446-456 nm (absorbance (446 nm)) in experiment [3] of 2.5.
